Test results: publication PMC7600612 (2020)

T1: FGFRL1 Ig2 (Homo sapiens, UniProt Q8N441)
T1 chain: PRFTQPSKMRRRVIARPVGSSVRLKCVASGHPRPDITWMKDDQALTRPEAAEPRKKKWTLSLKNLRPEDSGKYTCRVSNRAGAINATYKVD


Legend:
FGFR1 (Homo sapiens) = FGFR1 (Homo sapiens) (UniProt P11362); conditions: cited from earlier work
FGFRL1 (Homo sapiens) = FGFRL1 (Homo sapiens) (UniProt Q8N441); conditions: cited from earlier work
FGFR2 (Homo sapiens) = FGFR2 (Homo sapiens) (UniProt P21802); conditions: cited from earlier work
[1] = molecular target: Human FGF8b (fibroblast growth factor 8, isoform b) (human); experiment: SPR; Biacore X100; FGF8b covalently attached (amine coupling, 295 RU) to a matrix-free C1 chip; FGFRL1 polypeptides injected at 3.125-50 nM in HBS-EP+ (10 mM HEPES, 150 mM NaCl, 3 mM EDTA, 0.05% P20, pH 7.4), 30 μL/min, 120 s association, 240 s dissociation; global kinetic fit to a 1:1 model
FGFRL1 Ig2 = molecular target: T1, FGFRL1 Ig2; experiment: SPR

FGFRL1 Ig123 (complete extracellular domain of human fibroblast growth factor receptor-like protein 1), sequence (Q8N441 25-359): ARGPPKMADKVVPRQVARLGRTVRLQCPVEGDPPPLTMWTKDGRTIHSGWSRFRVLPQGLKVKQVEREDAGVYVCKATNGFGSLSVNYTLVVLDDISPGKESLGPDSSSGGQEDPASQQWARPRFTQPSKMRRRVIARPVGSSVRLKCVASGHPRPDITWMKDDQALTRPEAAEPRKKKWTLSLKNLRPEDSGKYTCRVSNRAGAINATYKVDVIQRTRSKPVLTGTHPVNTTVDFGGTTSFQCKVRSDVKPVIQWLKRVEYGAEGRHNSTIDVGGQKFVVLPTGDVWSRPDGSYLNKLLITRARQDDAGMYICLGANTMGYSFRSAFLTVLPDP
FGFRL1 Ig2 construct, sequence (Q8N441 other isoform, or with tags, fused parts or gaps): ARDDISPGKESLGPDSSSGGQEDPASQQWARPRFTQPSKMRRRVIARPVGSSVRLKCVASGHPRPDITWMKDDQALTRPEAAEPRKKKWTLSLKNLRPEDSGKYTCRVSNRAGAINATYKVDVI
FGFRL1 Ig12 construct, sequence (Q8N441 25-239): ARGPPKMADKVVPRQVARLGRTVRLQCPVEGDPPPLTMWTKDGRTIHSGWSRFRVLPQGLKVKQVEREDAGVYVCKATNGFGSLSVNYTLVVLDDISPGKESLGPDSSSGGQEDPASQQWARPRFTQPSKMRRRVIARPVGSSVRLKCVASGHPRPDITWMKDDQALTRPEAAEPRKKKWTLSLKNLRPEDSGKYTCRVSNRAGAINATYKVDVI
FGF3, sequence (P11487 18-239): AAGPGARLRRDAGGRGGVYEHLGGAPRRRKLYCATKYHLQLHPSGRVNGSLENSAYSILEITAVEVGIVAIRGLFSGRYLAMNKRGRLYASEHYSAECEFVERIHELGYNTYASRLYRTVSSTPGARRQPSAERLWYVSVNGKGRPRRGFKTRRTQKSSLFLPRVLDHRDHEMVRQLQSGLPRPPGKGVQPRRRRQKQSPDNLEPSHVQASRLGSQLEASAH
FGFR1 (Homo sapiens), sequence (P11362 22-822 P252R): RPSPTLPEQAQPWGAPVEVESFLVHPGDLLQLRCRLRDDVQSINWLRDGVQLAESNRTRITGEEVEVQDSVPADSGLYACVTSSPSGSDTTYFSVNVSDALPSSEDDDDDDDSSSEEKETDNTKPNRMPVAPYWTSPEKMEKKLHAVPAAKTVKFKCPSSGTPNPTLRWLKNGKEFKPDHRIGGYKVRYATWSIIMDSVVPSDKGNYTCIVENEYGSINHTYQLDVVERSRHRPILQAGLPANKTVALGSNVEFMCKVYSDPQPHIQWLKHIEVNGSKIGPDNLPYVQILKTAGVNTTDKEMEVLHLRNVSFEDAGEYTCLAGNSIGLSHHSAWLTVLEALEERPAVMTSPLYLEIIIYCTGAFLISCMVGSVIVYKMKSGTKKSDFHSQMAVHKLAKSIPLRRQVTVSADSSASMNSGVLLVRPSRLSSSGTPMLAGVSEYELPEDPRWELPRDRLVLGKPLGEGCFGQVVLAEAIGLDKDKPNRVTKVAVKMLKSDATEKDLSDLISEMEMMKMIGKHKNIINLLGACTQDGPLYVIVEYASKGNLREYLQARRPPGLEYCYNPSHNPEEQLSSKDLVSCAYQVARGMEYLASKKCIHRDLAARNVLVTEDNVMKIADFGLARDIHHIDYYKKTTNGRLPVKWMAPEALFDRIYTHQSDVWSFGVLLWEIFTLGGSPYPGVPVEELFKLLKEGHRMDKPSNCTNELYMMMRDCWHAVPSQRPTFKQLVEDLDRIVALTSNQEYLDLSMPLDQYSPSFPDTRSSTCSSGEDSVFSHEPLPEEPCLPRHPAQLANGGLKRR
FGF2, sequence (P09038 143-288): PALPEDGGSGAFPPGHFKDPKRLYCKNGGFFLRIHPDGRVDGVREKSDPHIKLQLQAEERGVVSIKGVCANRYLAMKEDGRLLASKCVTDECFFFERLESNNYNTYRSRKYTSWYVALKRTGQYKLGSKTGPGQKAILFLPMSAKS
FGFRL1 (Homo sapiens), sequence (Q8N441 25-378): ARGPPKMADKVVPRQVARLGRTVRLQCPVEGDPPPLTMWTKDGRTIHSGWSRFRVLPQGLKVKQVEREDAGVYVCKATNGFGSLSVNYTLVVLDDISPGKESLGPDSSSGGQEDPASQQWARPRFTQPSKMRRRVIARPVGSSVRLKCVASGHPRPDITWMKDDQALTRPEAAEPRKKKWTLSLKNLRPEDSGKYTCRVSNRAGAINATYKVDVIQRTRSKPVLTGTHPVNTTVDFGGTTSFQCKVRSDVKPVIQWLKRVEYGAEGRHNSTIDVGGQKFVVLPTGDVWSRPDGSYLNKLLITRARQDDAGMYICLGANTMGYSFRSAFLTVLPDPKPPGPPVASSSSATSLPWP
FGFR2 (Homo sapiens), sequence (P21802 22-377): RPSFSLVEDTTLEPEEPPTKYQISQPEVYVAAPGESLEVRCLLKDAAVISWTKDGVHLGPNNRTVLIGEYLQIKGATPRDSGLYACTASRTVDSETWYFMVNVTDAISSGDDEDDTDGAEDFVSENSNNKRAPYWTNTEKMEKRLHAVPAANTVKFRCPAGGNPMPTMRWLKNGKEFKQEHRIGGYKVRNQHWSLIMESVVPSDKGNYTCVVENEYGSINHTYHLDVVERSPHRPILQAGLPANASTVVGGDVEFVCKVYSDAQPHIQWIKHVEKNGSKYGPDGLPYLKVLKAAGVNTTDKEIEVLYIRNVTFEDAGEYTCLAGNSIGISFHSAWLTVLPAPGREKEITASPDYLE

| Kd [1] [nM] | koff [1] [s⁻¹] | kon [1] [M⁻¹ s⁻¹] | Molecule | further results |
| --- | --- | --- | --- | --- |
|  |  |  | FGF2 (from UniProt P09038) | Kd (FGFR1 (Homo sapiens)): 24 nM |
|  |  |  | FGF3 (from UniProt P11487) | Kd (FGFRL1 (Homo sapiens)): 4.2 nM |
|  |  |  | FGF8 (from UniProt P55075) | Kd (FGFR2 (Homo sapiens)): 130 nM |
| 1.73 | 0.0092 | 5.32e+06 | FGFRL1 Ig2 construct (from UniProt Q8N441 25-26; Q8N441 118-239) (domain or fragment) |  |
| 1.94 | 0.0107 | 5.49e+06 | FGFRL1 Ig12 construct (from UniProt Q8N441 25-239) (domain or fragment) |  |
| 2.07 | 0.000806 | 390000 | FGFRL1 Ig23 construct (from UniProt Q8N441 25-26; Q8N441 118-357) (domain or fragment) |  |
| 3.37 | 0.00126 | 373000 | FGFRL1 Ig123 (complete extracellular domain of human fibroblast growth factor receptor-like protein 1) (from UniProt Q8N441 25-359) (domain or fragment) |  |
|  |  |  | FGF8 (protein) QEGPGRGPALGRELASLFRAGREPQGVSQQHVREQSLVTDQLSRRLIRTYQLYSRTSGKHVQVLANKRINAMAEDGDPFAKLIVETDTFGSRVRVRGAETGLYICMNKKGKLIAKSNGKGKDCVFTEIVLENNYTALQNAKYEGWYMAFTRKGRPRKGSKTRQHQREVHFMKRLPRGHHTTEQSLRFEFLNYPPFTRSLRGSQRTWAPEPR | Kd (FGFRL1 Ig2): 1.7 nM |
